Biological target: T1, human CSF3 protein (human, UniProt P09919 31-207)
T1 construct: also called G-CSF; human colony-stimulating factor 3
T1 sequence: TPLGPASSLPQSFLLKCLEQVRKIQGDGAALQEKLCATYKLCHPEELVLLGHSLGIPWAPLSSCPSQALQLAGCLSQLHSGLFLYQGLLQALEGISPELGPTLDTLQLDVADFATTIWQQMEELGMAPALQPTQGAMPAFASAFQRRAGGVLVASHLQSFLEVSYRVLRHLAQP
Assay: high-mass MALDI MS of a mixture of Y41 antibody and human CSF3 protein; complexes of one or two CSF3 with one Y41

B1: C41 (or Y41) (antibody, human IgG1, kappa, V domains shown)
VH: EMQLVQSGAEARKPGSSVKVSCKASGYTFTNYGISWLRQTPGQGLEWMGWINPNSGGTIYAQKFQGRVTMTRDTPITTAYMELSTLRSEDTAVYYCSRGSGGAVPFDVWGQGTMVTVSS
VL: DIQMTQSPFSLSASVGDRVTITCRASQTISNRLNWYQHKPGKAPKLFIYYASSLQSGVPSRFSGSGSGTDFALTISSLQPEDFATYYCQQGYSSPRTFGQGTKVEIKR
notes: Human IgG1; the CDR numbers printed for Y41 disagree between places; also called 007A06; CSA1241
B1: binds.
